Where no end group is shown, it is not given here.
T1: β-catenin (Homo sapiens, UniProt P35222)
T1 construct: expressed in transfected cells; host or cells: yeast (two-hybrid system, Clontech)
T1 sequence (P35222 1-781): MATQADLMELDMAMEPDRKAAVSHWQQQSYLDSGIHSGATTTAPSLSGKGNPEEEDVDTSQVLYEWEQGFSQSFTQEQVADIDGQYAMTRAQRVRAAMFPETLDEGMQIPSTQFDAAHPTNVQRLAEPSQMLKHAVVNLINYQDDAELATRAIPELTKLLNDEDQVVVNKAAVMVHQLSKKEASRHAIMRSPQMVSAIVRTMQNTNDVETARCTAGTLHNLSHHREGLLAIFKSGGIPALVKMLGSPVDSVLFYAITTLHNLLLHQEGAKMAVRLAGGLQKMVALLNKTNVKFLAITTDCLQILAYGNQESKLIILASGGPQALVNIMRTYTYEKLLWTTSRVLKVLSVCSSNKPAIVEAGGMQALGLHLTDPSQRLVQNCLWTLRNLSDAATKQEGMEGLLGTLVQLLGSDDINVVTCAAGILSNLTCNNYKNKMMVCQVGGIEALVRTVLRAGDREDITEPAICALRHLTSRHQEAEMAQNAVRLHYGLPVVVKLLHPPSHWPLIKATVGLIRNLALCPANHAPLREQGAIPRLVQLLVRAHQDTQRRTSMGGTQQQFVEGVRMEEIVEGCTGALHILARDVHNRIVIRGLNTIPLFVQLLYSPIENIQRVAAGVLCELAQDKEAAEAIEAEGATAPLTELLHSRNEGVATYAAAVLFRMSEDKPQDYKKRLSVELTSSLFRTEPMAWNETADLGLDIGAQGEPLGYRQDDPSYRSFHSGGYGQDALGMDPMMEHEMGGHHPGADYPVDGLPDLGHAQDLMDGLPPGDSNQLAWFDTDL

T2: β-catenin produced recombinantly in bacteria with N-terminal histidine sequence (Homo sapiens (Human), UniProt P35222 2-781)
T2 construct: Soluble partner in the ELISA (50-100 ng), detected with antibody PA2
T2 sequence: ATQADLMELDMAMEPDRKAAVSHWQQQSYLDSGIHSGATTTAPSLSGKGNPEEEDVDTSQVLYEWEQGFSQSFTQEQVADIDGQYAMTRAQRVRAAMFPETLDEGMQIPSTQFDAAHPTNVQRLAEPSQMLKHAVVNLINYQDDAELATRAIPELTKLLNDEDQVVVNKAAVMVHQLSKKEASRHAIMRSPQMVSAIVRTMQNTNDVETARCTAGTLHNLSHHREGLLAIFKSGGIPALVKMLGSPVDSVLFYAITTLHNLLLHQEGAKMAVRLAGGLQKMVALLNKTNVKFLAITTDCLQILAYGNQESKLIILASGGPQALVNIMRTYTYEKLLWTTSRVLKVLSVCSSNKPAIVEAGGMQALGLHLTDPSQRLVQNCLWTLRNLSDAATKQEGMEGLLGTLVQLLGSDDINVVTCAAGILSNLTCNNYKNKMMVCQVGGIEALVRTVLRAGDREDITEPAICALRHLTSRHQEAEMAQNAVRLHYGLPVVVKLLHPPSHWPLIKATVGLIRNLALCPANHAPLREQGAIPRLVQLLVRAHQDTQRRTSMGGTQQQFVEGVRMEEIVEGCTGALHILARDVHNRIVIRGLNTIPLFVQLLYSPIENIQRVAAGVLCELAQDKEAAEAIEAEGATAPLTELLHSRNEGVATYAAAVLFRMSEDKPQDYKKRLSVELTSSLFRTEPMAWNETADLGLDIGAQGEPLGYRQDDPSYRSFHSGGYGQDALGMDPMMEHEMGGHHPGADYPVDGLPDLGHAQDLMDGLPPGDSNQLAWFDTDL

B1: 11–23: LEF-1 fragment amino acids 11–23, Lex-A hybrid (protein)
chain: MKALTARQQEVFDLIRDHISQTGMPPTRAEIAQRLGFRSPNAAEEHLKALARKGVIEIVSGASRGIRLLQEEEEGLPLVGRVAAGEPLLAQQHIEGHYQVDPSLFKPNADFLLRVSGMSMKDIGIMDGDLLAVHKTQDVRNGQVVVARIDDEVTVKRLKKQGNKVELLPENSEFKPIVVDLRQQSFTIEGLAVGVIRNGDWLGDPELCATDEMIP
B2: 11–27: LEF-1 fragment amino acids 11–27, Lex-A hybrid; minimum binding domain for β-catenin (protein)
chain: MKALTARQQEVFDLIRDHISQTGMPPTRAEIAQRLGFRSPNAAEEHLKALARKGVIEIVSGASRGIRLLQEEEEGLPLVGRVAAGEPLLAQQHIEGHYQVDPSLFKPNADFLLRVSGMSMKDIGIMDGDLLAVHKTQDVRNGQVVVARIDDEVTVKRLKKQGNKVELLPENSEFKPIVVDLRQQSFTIEGLAVGVIRNGDWLGDPELCATDEMIPFKDE
B3: 17–34: LEF-1 fragment amino acids 17–34, Lex-A hybrid (protein)
chain: MKALTARQQEVFDLIRDHISQTGMPPTRAEIAQRLGFRSPNAAEEHLKALARKGVIEIVSGASRGIRLLQEEEEGLPLVGRVAAGEPLLAQQHIEGHYQVDPSLFKPNADFLLRVSGMSMKDIGIMDGDLLAVHKTQDVRNGQVVVARIDDEVTVKRLKKQGNKVELLPENSEFKPIVVDLRQQSFTIEGLAVGVIRNGDWLATDEMIPFKDEGDPQKEK

Experiments:
β-catenin/TCF-4 complex = experiment: ELISA with synthetic peptides: formation of the β-catenin/TCF-4 complex; format: binding; conditions: synthetic TCF4 peptides, analogous to LEF-1 peptides, which inhibit specifically
β-catenin = biological target: T1, β-catenin; experiment: yeast-2-hybrid system: interaction of LEF-1 fragments with β-catenin (β-galactosidase reporter activity); format: binding; conditions: LEF-1 fragments as Lex-A hybrids
Method: The ‘yeast-2-hybrid system’ was used for identifying the minimum binding domain (FIG. 1). It was possible to limit the minimum binding domain to the N-terminal amino acids 11–27 of LEF-1 which corresponds t) the amino acids 7–29 in TCF-4 (FIG. 2). The interaction of N-terminal LEF-1 fragments with β-catenin was detected by means of activating a lacZ reporter gene (s. example).
The interaction between the partial domains of LEF-1 and β-catenin was analyzed in the yeast-2 hybrid system by determining the activity of β-galactosidase according to information of the producer (Clontech) (FIG. 1). For this purpose the DNA coding for the N-terminal partial domains of LEF-1 was inserted into the cloning site of the Lex-A DNA binding domain which contains vector BTM 116 and checked by sequencing. The DNA fragments of LEF-1 were prepared by a polymerase chain reaction (PCR) and incubation with restriction endonucleases. The DNA coding for β-catenin was cloned into the vector pGAD424 (Clontech) for the activation domain of GAL-4 (Behrens et al. 1996). The β-galactosidase activities of independent experiments were averaged (or comparing the interaction of the hybrids.
The specificity of the interaction of the LEF-1 hybrids with β-catenin was checked by means of the β-galactosidase activity of yeasts producing the LEF hybrids and the GAL-4 activation domain without β-catenin (FIG. 1). The expression of the LEF-1 hybrids was checked in an immunoblot with yeast cell lysates by antibodies (Clontech) as against the Lex-A domain of the hybrids. Equal yeast quantities were used for preparing the lysates after determining the optical density of the cultures.
The interaction of fragments of the binding domain of LEF-1 with β-catenin was analyzed by means of the β-galactosidase reporter activity in the yeast-2-hybrid system. […] Accordingly, the minimum binding domain of LEF-1 for β-catenin consists of 17 amino acids (11–27) showing an acidic character.

[1] = biological target: T2, β-catenin produced recombinantly in …; experiment: competition ELISA, LEF-1 coated, β-catenin in solution, detection with antibody PA2

Molecule	Binding to β-catenin (β-galactosidase reporter activity) (β-catenin)	further results
GGDDLGANDELISFKDEGEQEEK [7–29]		inhibition of formation of the β-catenin/TCF-4 complex (β-catenin/TCF-4 complex): Analogous principles apply
Met21 up to Val 56: partial domain of LEF-1 covering Met21 up to Val 56	does not show any binding activity	
DLGANDELISFKDE [10–23]		inhibition of formation of the β-catenin/TCF-4 complex (β-catenin/TCF-4 complex): Analogous principles apply
B1	prevent the interaction	
B2	does not result in a loss of bond	
B3	prevent the interaction	
GGDPELCATDEMIPFKDEGDPQKEK (peptide, UniProt P27782 10-34, looked up, range 10-34; the legend prints 10-34) [synthetic peptide of the minimum binding domain of LEF-1 (10-34)]		IC50 [1]: 4 µM

Reference: patent publication US7067474B1, “Agents for treating human illnesses based on β-catenin, and the production and use thereof” (Max-Delbruck-Centrum fur Molekulare Medizin, priority 1998, dated 2006)
